Here are results for two molecules from article PMC5875850, “Insights into DNA substrate selection by APOBEC3G from structural, biochemical, and functional studies”.

Series [1] addresses Pot1-A3GCTD fusion (Pot1A3GCTD) (Schizosaccharomyces pombe (Pot1) / Homo …, UniProt O13988 1-185+Q9HC16:195-384, L234K;C243A;F310K;C321A;C356A;internal_change). Nature of the series: size exclusion chromatography; Kinetic Kd: 20 mM Tris pH 8.0, 1 mM DTT, 37 C, 1-50 uM enzyme, 40 nM DNA; SEC/complex: 50 mM Tris pH 7.0, 100 mM NaCl, 0.1 mM TCEP (stated for the Pot1-A3GCTD gel filtration); crystals 20 C, 100 mM HEPES pH 7, 200 mM LiCl, 20% PEG 6000. As to conditions: protein: recombinant; tags: His6-Staph nuclease tag removed by SARS-CoV Mpro; single strand.

Series [2] deals with A3GCTD WT (A3G191-384-2K3A) (Homo sapiens, UniProt Q9HC16 191-384, L234K;C243A;F310K;C321A;C356A). The experiment in a line: single-turnover deamination kinetics (kobs vs [E], hyperbolic fit); Kinetic Kd: 20 mM Tris pH 8.0, 1 mM DTT, 37 C, 1-50 uM enzyme, 40 nM DNA; SEC/complex: 50 mM Tris pH 7.0, 100 mM NaCl, 0.1 mM TCEP (stated for the Pot1-A3GCTD gel filtration); crystals 20 C, 100 mM HEPES pH 7, 200 mM LiCl, 20% PEG 6000. Conditions: protein: recombinant; tags: His6-MBP tag removed by SARS-CoV Mpro; label: 5' 32P; single strand.
Chain of A3GCTD WT (A3G191-384-2K3A) (Q9HC16 191-384 L234K/C243A/F310K/C321A/C356A, one chain of several): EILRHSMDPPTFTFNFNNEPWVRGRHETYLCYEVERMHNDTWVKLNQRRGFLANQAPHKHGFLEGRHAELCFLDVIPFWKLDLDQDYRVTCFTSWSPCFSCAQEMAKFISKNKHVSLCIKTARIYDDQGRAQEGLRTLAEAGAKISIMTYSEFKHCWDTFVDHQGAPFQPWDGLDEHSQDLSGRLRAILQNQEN

Chain of Pot1-A3GCTD fusion (Pot1A3GCTD) (O13988 other isoform, or with tags, fused parts or gaps L234K;C243A;F310K;C321A;C356A;): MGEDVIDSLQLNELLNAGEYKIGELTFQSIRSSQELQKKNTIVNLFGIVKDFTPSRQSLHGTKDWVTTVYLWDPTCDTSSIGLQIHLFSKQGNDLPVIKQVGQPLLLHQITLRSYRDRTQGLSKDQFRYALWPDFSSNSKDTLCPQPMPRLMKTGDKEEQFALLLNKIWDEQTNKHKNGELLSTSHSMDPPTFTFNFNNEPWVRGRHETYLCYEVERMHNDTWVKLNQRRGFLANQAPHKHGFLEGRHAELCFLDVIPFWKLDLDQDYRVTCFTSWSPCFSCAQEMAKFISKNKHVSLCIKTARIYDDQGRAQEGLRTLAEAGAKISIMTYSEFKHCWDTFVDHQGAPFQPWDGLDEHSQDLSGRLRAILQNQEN

Take AGAAGACCCAAAGAAGAGGAAGCAGGTTAC (ssDNA) [30nt Pot1/A3G substrate (CCCA + GGTTAC)]: in series [1], the binding result is listed as “binds”.

Turning to TAGAAAGGGAGACCCAAAGAGGAAAGGTGA (ssDNA) [CCCA 30-mer], in series [2], the Kd worked out at 26 µM.
